Experimental data taken from patent US20250011388A1 (MONASH UNIVERSITY, published 2025).

B1: human CD80 (hCD80) expressed on CHO cells (ligand, UniProt P33681 35-288, looked up)
chain: VIHVTKEVKEVATLSCGHNVSVEELAQTRIYWQKEKKMVLTMMSGDMNIWPEYKNRTIFDITNNLSIVILALRPSDEGTYECVVLKYEKDAFKREHLAEVTLSVKADFPTPSISDFEIPTSNIRRIICSTSGGFPEPHLSWLENGEELNAINTTVSQDPETELYAVSSKLDFNMTTNHSFMCLIKYGHLRVNQTFNWNTTKQEHFPDNLLPSWAITLISVNGIFVICCLTYCFAPRCRERRRNERLRRESVRPV
notes: whole, on cells; In most assays co-expressed with human PDL1 on the same CHO cell (cis-CD80:PDL1 clones, e.g. clone 12); also called B7-1; cis-CD80:PDL1 cells

Key:
[1] = target: B1; experiment: flow cytometry, anti-hIgG1 staining, cis-CD80:PDL1 CHO cells
Method: After washing to remove excess fusion protein and antibody, cell pellets were resuspended in 100 μL of FACS buffer (PBS with 10% FCS). Flow cytometry was performed on viable cells (based on SSC/FSC) using a BD LSRII or LSRFortessa (BD Biosciences), and cell sorting was performed using a BD Influx (BD Biosciences) with a 100 μm nozzle. […] All antibodies were used at a final dilution of 1:200 from stock.

[2] = target: T1, human PDL1 (hPDL1) expressed on CHO cells (human, UniProt Q9NZQ7 19-290); experiment: flow cytometry, CHO cells co-expressing human CD80 and PDL1 (cis interaction)
T1 construct: whole, on cells; Expressed alone (parental PDL1 clone) or with CD80 (cis-CD80:PDL1 clones)
T1 sequence (Q9NZQ7 19-290): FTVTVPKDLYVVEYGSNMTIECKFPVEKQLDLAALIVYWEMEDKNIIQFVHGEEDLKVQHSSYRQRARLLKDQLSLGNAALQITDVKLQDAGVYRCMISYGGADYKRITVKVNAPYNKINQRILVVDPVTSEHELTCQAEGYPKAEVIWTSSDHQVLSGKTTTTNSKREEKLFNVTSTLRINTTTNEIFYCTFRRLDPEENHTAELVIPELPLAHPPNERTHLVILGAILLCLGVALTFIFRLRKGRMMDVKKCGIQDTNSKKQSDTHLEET

| Binder | binding result [1] | binding result [2] |
| --- | --- | --- |
| MonoCTLA4-Ig (Fc fusion, not shown: C-terminal FLAG tag) MHVAQPAVVLASSRGIASFVCEYASPGKATEVRVTVLRQADSQVTEVCAATYMMGNELTFLDDSICTGTSSGNQVNLTIQGLRAMDTGLYICKVELMYPPPYYLGIGNGTQIYVIAKEKKPSYNRGLCENAPNRARMQEPKSSDKTHTSPPSPAPELLGGSSVFLFPPKPKDTLMISRTPEVTCVVVDVSHEDPEVKFNWYVDGVEVHNAKTKPREEQYNSTYRVVSVLTVLHQDWLNGKEYKCKVSNKALPAPIEKTISKAKGQPREPQVYTLPPSRDELTKNQVNLTCLVKGFYPSDIAVEWESNGQPENNYKTTPPVLDSDGSFFLNSTLTVDKSRWQQGNVFSCSVMHEALHNHYTQKSLSLSPGK | binds | – |
| B1 | – | binds |
